From patent US20110027273A1

Target: mouse CD22 (mouse) (UniProt P35329)
Test: cell-based or functional assay

Chain of UniProt P35329 (P35329 22-868): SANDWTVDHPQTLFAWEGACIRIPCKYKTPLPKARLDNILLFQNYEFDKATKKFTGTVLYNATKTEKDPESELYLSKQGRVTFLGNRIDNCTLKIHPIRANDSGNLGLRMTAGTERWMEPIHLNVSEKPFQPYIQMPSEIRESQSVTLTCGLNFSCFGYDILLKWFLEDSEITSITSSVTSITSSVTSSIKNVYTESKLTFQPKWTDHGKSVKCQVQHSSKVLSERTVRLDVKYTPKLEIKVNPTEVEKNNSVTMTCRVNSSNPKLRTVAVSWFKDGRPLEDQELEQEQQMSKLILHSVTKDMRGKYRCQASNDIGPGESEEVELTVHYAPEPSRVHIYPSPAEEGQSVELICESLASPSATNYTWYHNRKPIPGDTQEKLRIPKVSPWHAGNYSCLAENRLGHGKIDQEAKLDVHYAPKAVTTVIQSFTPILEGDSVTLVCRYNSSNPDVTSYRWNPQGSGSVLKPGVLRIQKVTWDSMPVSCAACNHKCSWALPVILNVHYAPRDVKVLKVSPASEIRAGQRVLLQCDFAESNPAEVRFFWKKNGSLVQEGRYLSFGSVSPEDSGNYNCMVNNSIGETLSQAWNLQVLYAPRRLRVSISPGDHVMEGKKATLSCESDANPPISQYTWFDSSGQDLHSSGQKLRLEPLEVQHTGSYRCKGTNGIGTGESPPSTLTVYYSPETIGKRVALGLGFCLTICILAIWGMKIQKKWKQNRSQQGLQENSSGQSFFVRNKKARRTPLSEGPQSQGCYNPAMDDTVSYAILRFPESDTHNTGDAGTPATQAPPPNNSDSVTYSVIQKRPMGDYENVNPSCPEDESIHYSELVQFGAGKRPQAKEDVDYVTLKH

IC50, proliferation of LPS-stimulated primary mouse B cells (3H thymidine, 48 hr): 0.03 µg/mL
selectivity against the control immunoconjugate J110/cal (IC50 3 µg/ml), B cell proliferation: 100 fold
Substance: CD22/cal (Cy34.1 mAb conjugated to N-acetyl gamma calicheamicin dimethyl acid) (antibody)
IC50, in vitro cytotoxicity (proliferation of LPS-stimulated primary B cells, 48 hours): 0.08 µg/mL
